{"source": "patent US8754034B2", "about": "“Structure-based design of peptide inhibitors of amyloid fibrillation” (The Regents of the University of California, priority 2009, dated 2014)", "key": {"tau K12 [1]": {"molecular_target": "T1, tau K12 (Homo sapiens, UniProt P10636)", "T1 construct": "starting Met residue (added initiator methionine before Q244) (N); made in house; host or cells: E. coli BL21 (DE3), vector pNG2 (pET-3b derivative)", "T1 sequence (P10636 186-305 isoform P10636-2)": "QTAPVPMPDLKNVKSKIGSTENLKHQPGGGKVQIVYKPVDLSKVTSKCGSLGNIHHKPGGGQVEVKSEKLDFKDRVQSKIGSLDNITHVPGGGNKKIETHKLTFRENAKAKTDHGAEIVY", "assay": "Fibril formation inhibition assay of tau K12 monitored by ThS fluorescence", "type": "biochemical", "conditions": "for effect on K12 fibrillation, comparison between peptides: ThS fluorescence, ratio not given (FIG. 4); for effect on tau K12 fibrillation (ThS fluorescence): peptide at equimolar ratio with K12; for ratio (concentration) dependence of the delay of K12 fibrillation (lag time): various molar ratios of peptide to K12 (FIGS. 5, 6); for average lag time of K12 fibrillation: peptide at equimolar ratio with K12 (FIG. 10b)", "protocol": "150 μL reactions containing 50 or 100 μM tau K12, as determined by the micro BCA Protein Assay Kit (Pierce), were incubated in 250 mM sodium phosphate buffer pH 7.4 with 1 mM DTT, 3 μM heparin, and 10 μM ThS (Friedhoff et al., 1998; Perez et al., 1996; Schweers et al., 1995). Peptides were dissolved in 250 mM sodium phosphate buffer pH 7.4 and added at various molar ratios to the reaction mixtures. The fluorescence signal was measured every 15 minutes with excitation and emission wavelengths of 440 and 510 nm, respectively, at 37° C. with continuous shaking at 900 rpm with a diameter of 1 mm in a Varioskan plate reader (Thermo Fisher Scientific, Inc.). Reactions were split into a minimum of 3 replicates in Nunc optically clear bottom, 96-well black plates, sealed with Corning pressure seal tape and monitored for various times. Each experiment was repeated a minimum of four times yielding the same results."}, "tau K12 [2]": {"molecular_target": "T1, tau K12", "assay": "Electron microscopy of tau K12 fibril formation in the presence of peptides", "type": "biochemical", "conditions": "K12 incubated with peptide, with or without ThS", "protocol": "5 μL of sample were applied to glow discharged 400 mesh carbon-coated formar films on copper grids (Ted Pella, Inc.) for three minutes. Grids were rinsed twice with distilled water and stained with 1% uranyl acetate for 90 seconds. Grids were examined in a Hitachi H-7000 transmission electron microscope at 75 kEv."}, "amyloid β protein": {"molecular_target": "amyloid β protein (Homo sapiens, UniProt P05067)", "sequence (P05067 672-713 limits assumed)": "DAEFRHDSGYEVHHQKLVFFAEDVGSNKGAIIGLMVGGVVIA", "assay": "Amyloid beta fibrillation monitored by thioflavin T fluorescence", "type": "biochemical", "conditions": "thioflavin T fluorescence (FIG. 4b)", "from_the_text": "In FIG. 4(b), fibril formation of amyloid beta (abeta) protein is not delayed by addition of D-TLKIVW. Tau K12 fibrillation is monitored by ThS fluorescence and amyloid beta fibrillation is monitored by thioflavin T fluorescence."}, "tau K12 construct": {"molecular_target": "tau K12 construct (UniProt P10636-8 244-274; P10636-8 306-394, limits assumed)", "sequence (P10636 other isoform, or with tags, fused parts or gaps limits assumed)": "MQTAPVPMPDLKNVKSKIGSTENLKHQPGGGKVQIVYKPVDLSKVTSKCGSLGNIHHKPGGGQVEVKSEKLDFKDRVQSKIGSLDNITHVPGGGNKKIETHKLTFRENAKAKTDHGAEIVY", "assay": "cell-based or functional assay"}}, "note": "Entries after “also recorded” stand apart in the source; their conditions may differ. Where no end group is shown, it is not given here. [ ]: non-standard residue; d: D form."}
{"molecule": "D-DYYFEF ([dD][dY][dY][dF][dE][dF]) [D-amino acid peptide designed to pack against the bottom of the VQIVYK atomic structure]", "values": [{"measurement": "effect on K12 fibrillation, comparison between peptides", "setting": "tau K12 [1]", "result": "improved capping over D-DYYFEK"}, {"measurement": "effect on tau K12 fibrillation (ThS fluorescence)", "setting": "tau K12 [1]", "result": "no inhibition"}, {"measurement": "ratio (concentration) dependence of the delay of K12 fibrillation (lag time)", "setting": "tau K12 [1]", "result": "delayed K12 fibrillation in a concentration dependent manner; also recorded: some effect at delaying fibrillation"}]}
{"molecule": "D-DYYFEK ([dD][dY][dY][dF][dE][dK])", "values": [{"measurement": "effect on tau K12 fibrillation (ThS fluorescence)", "setting": "tau K12 [1]", "result": "all peptides except D-DYYFEK systematically delayed fibrillation"}]}
{"molecule": "D-GVIGIA (G[dV][dI]G[dI][dA]) [D-amino acid control peptide, a stereoisomer of an L-amino acid peptide known to aggregate on its own, reference compound]", "values": [{"measurement": "effect on tau K12 fibrillation (ThS fluorescence)", "setting": "tau K12 [1]", "result": "no effect on fibrillation; also recorded: without any effect on fibrillation"}]}
{"molecule": "D-LKTWIV ([dL][dK][dT][dW][dI][dV]) [scrambled peptide of D-TLKIVW, reference compound]", "values": [{"measurement": "effect on K12 fibrillation, comparison between peptides", "setting": "tau K12 [1]", "result": "does not delay the onset of K12 fibrillation"}]}
{"molecule": "D-TIKWVL ([dT][dI][dK][dW][dV][dL]) [scrambled peptide of D-TLKIVW, order of residues scrambled in one face]", "values": [{"measurement": "effect on K12 fibrillation, comparison between peptides", "setting": "tau K12 [1]", "result": "does not delay the onset of K12 fibrillation"}, {"measurement": "effect on tau K12 fibrillation (ThS fluorescence)", "setting": "tau K12 [1]", "result": "some inhibitory effect; also recorded: not nearly as effective as D-TLKIVW"}]}
{"molecule": "D-TIWKVL ([dT][dI][dW][dK][dV][dL]) [scrambled peptide of D-TLKIVW, reference compound]", "values": [{"measurement": "effect on K12 fibrillation, comparison between peptides", "setting": "tau K12 [1]", "result": "does not delay the onset of K12 fibrillation"}]}
{"molecule": "D-TLKIVW ([dT][dL][dK][dI][dV][dW]) [D-amino acid peptide designed to pack against the top of the VQIVYK fibril-like structure of tau]", "values": [{"measurement": "molar ratio of peptide relative to tau K12 at which a marginal effect on delay of fibrillation was observed", "setting": "tau K12 [1]", "result": "50 fold less peptide relative to tau K12 concentration"}, {"measurement": "time without ThS signal", "setting": "tau K12 [1]; 50 μM K12, peptide at 2-fold and 5-fold excess, some of the samples", "result": "> 300", "unit": "h"}, {"measurement": "time without fibril formation", "setting": "tau K12 [1]; 2-fold or 5-fold excess peptide, some experiment replicates", "result": "more than 2 weeks"}, {"measurement": "effect on K12 fibrillation, comparison between peptides", "setting": "tau K12 [1]", "result": "the most effective peptide; also recorded: delays fibrillation relative to K12 alone"}, {"measurement": "effect on tau K12 fibrillation (ThS fluorescence)", "setting": "tau K12 [1]", "result": "inhibition for several days"}, {"measurement": "average lag time of K12 fibrillation", "setting": "tau K12 [1]", "result": "over 140 hours"}, {"measurement": "effect on tau K12 fibrillation (ThS fluorescence)", "setting": "tau K12 [1]; listed as D-amino acid peptide TLKIVW", "result": "prevents the formation of K12fibrils"}, {"measurement": "ratio (concentration) dependence of the delay of K12 fibrillation (lag time)", "setting": "tau K12 [1]", "result": "delayed longer by higher concentrations of the D-peptide"}, {"measurement": "fibril formation of K12 seen by electron microscopy", "setting": "tau K12 [2]", "result": "there were no fibrils; also recorded: prevents fibril formation; also recorded: fibrils do not form"}, {"measurement": "effect on fibril formation of amyloid beta protein", "setting": "amyloid β protein", "result": "no effect on fibrillation; also recorded: not delayed"}]}
{"molecule": "D-TWKLVL ([dT][dW][dK][dL][dV][dL]) [D-amino acid peptide designed to pack against the top of the VQIVYK fibril structure]", "values": [{"measurement": "molar ratio of peptide relative to tau K12 at which a marginal effect on delay of fibrillation was observed", "setting": "tau K12 [1]", "result": "10 fold less peptide relative to tau K12 concentration"}, {"measurement": "duration of effective inhibition of K12 fibrillation", "setting": "tau K12 [1]; 5-fold excess peptide", "result": "about 1 week"}, {"measurement": "peptide concentration relative to K12 at which an inhibitory effect is still seen", "setting": "tau K12 [1]; ThS fluorescence (FIGS. 5, 6)", "result": "10 % the molar concentration of K12"}, {"measurement": "delay of K12 fibrillation", "setting": "tau K12 [1]; peptide at equimolar ratio with K12 (FIG. 3a)", "result": "more than 30 hours"}, {"measurement": "ratio (concentration) dependence of the delay of K12 fibrillation (lag time)", "setting": "tau K12 [1]", "result": "still were inhibiting fibrillation of K12"}, {"measurement": "fibril formation of K12 seen by electron microscopy", "setting": "tau K12 [2]", "result": "Fibrils do not form"}, {"measurement": "fibril formation of K12 seen by electron microscopy", "setting": "tau K12 [2]; listed as DTWKLVL", "result": "there were no fibrils"}]}
{"molecule": "D-YVIIER ([dY][dV][dI][dI][dE][dR]) [D-amino acid peptide designed to pack against the bottom of the VQIVYK fibril structure]", "values": [{"measurement": "effect on tau K12 fibrillation (ThS fluorescence)", "setting": "tau K12 [1]", "result": "some delay"}, {"measurement": "ratio (concentration) dependence of the delay of K12 fibrillation (lag time)", "setting": "tau K12 [1]", "result": "delayed K12 fibrillation in a concentration dependent manner; also recorded: clear ratio dependence"}]}
{"molecule": "L-TLKIVW (SEQ ID NO: 3) [L-amino acid enantiomer of D-TLKIVW]", "values": [{"measurement": "effect on K12 fibrillation, comparison between peptides", "setting": "tau K12 [1]", "result": "able to inhibit fibril formation, but not nearly as long as D-TLKIVW"}, {"measurement": "effect on tau K12 fibrillation (ThS fluorescence)", "setting": "tau K12 [1]", "result": "able to inhibit fibril formation, but not nearly as long as D-TLKIVW; also recorded: not nearly as effective as D-TLKIVW"}, {"measurement": "average lag time of K12 fibrillation", "setting": "tau K12 [1]", "result": "about 40 hours"}]}
{"molecule": "L-VQIVYK (SEQ ID NO: 1) [steric zipper segment of tau, used as control peptide, reference compound]", "values": [{"measurement": "effect on tau K12 fibrillation (ThS fluorescence)", "setting": "tau K12 [1]", "result": "no significant effect on fibrillation"}, {"measurement": "effect on tau K12 fibrillation (ThS fluorescence)", "setting": "tau K12 [1]; listed as VQIVYK", "result": "no effect at equimolar concentrations or in excess"}]}
{"molecule": "[dT][dI][dK][dW][dV][dL]", "note": "[D-TIKWVL]", "values": [{"measurement": "average lag time of K12 fibrillation (ThS fluorescence), equimolar ratio", "setting": "tau K12 construct", "result": 54, "unit": "h"}]}
{"molecule": "[dT][dW][dK][dL][dV][dL] (designed binder)", "note": "[D-TWKLVL]", "values": [{"measurement": "delay of K12 fibrillation at equimolar ratio (ThS fluorescence)", "setting": "tau K12 construct", "result": "> 30", "unit": "h"}, {"measurement": "duration of inhibition of K12 fibrillation at 5-fold excess peptide", "setting": "tau K12 construct", "result": "~1", "unit": "week"}, {"measurement": "molar amount of peptide relative to tau K12 construct to delay fibrillation", "setting": "tau K12 construct", "result": "10 fold less peptide than K12"}]}
{"molecule": "[dT][dL][dK][dI][dV][dW] (designed binder)", "note": "[D-TLKIVW]", "values": [{"measurement": "average lag time of K12 fibrillation (ThS fluorescence), equimolar ratio", "setting": "tau K12 construct", "result": "> 140", "unit": "h"}, {"measurement": "molar amount of peptide relative to tau K12 construct to delay fibrillation", "setting": "tau K12 construct", "result": "50 fold less peptide than K12"}, {"measurement": "time without K12 fibrils at 2-fold or 5-fold excess peptide", "setting": "tau K12 construct", "result": "> 2", "unit": "weeks"}]}
